We go through three substances from article PMC9769723.

Experiment [1] deals with Trichococcus flocculiformis photolyase (TfPHR), class 2 cyclobutane pyrimidine dimer (CPDII) photolyase (Trichococcus flocculiformis). The experiment is described as follows: shift of the absorption spectrum of the rhodopsin after mixing; purified TfHeR and TfPHR mixed at a 1:4 molar ratio, time-dependent absorption spectra (UV-2450 spectrometer).
The target is the same in experiment [2]. The experiment is described as follows: ITC; MicroCal ITC200; both proteins in sonication buffer (150 mM NaCl, 50 mM Tris-HCl pH 7.0) with 0.02% DDM; which protein was in the syringe is not given. In general terms: ITC needs no label: the signal is the heat of the interaction.
Experiment [3] shares this target.
Experiment [4] deals with NpSRII (Natronomonas pharaonis) (UniProt P42196). The settings on record: cited from earlier work.
Sequence of UniProt P42196 (P42196 whole entry): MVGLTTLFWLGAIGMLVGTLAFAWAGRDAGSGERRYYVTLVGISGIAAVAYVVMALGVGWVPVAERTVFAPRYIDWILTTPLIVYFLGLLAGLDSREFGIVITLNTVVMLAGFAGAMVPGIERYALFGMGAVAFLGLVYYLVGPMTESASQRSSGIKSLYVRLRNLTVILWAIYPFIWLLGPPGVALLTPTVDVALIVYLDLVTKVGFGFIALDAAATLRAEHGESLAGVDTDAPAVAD

For orientation: Kd means the free concentration of one partner at which half of the binding sites on the other are occupied at equilibrium, for simple one-to-one binding.

For the substance “Trichococcus flocculiformis heliorhodopsin (TfHeR) (natural protein)”, the shift of the absorption maximum after mixing (blue shift) in experiment [1] worked out at 8 nm. In addition, in experiment [2], the dissociation constant (Kd) amounted to 22 µM and the dH was -18.8 kcal/mol. Besides, the in vitro repair of UV-damaged oligo(dT)20 by TfPHR under white light (absorbance at 265 nm), with TfHeR against TfPHR alone, at saturation in experiment [3] was determined as 3 fold.
Consider TfHeR E97Q mutant (natural protein), for which the shift of the absorption maximum after mixing (blue shift) in experiment [1] stood at 4 nm. Further, in experiment [2], the dissociation constant (Kd) came to 121 µM.
For NpHtrII (from UniProt P42259), the Kd in experiment [4] was 0.65 µM.
